Assay results reported in US11155596B2, “Polypeptide” (AFFIBODY AB, priority 2016, dated 2021).
Each block holds one substance with its values, some of them ahead of it.

What was measured:
[1] = molecular target: human PD-L1 Fc Chimera (R&D Systems, cat. no. 156-B7-100) (human) (UniProt Q9NZQ7); experiment: ELISA screen, 40 pM hPD-L1
[2] = molecular target: PD-L1 on PD-L1 expressing cells (IFNg-stimulated THP-1 cells; MDA-MB-231 cells) (Homo sapiens (Human)) (UniProt Q9NZQ7); experiment: FACS, MDA-MB-231 cells, 0.625 µg/ml; negative control (buffer) 69
[3] = molecular target: PD-L1 on PD-L1 expressing cells (IFNg-stimulated THP-1 cells; MDA-MB-231 cells) (Homo sapiens (Human)) (UniProt Q9NZQ7); experiment: FACS, MDA-MB-231 cells, 1 µg/ml, positive control

Chain of human PD-L1 Fc Chimera (R&D Systems, cat. no. 156-B7-100) (human) (Q9NZQ7 19-239, change not shown): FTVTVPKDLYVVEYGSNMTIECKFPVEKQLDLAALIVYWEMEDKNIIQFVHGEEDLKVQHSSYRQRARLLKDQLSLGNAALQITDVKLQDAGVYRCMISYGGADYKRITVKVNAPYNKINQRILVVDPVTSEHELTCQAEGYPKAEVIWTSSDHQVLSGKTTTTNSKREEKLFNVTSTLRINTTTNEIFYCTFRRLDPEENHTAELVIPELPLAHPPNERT

ELISA response (average) [1]: 0.051 AU
Substance: fusion protein ABD with no Z-fusion partner (periplasmic negative control) (from UniProt P19909)

MFI [2]: 64
Substance: ipilimumab (Yervoy, Bristol-Myers Squibb, bought) (antibody)

MFI [3]: 610
Substance: mouse anti-PD-L1 antibody (R&D Systems, cat. no. MAB1561) (tool reagent)
